For this test, the target named is hdac2_mouse Hdac2 (UniProt P70288).
Chain of hdac2_mouse Hdac2 (P70288 whole entry): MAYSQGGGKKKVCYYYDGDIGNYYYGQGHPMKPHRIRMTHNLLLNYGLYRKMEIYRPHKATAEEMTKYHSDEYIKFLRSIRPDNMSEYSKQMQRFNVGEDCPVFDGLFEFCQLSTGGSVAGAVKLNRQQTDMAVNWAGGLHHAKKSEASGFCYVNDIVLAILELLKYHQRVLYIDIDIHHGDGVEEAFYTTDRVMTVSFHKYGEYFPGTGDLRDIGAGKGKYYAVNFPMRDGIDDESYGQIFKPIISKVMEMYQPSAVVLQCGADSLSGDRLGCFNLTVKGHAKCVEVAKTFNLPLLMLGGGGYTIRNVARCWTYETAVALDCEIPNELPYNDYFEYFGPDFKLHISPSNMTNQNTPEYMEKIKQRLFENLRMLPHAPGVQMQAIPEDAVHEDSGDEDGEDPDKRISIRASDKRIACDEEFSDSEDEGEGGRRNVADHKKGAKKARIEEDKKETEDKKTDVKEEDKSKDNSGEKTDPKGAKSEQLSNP

Chain of PR domain zinc finger protein 1 (Homo sapiens), O75626-2 K778R (O75626 37-825, stated change not applied): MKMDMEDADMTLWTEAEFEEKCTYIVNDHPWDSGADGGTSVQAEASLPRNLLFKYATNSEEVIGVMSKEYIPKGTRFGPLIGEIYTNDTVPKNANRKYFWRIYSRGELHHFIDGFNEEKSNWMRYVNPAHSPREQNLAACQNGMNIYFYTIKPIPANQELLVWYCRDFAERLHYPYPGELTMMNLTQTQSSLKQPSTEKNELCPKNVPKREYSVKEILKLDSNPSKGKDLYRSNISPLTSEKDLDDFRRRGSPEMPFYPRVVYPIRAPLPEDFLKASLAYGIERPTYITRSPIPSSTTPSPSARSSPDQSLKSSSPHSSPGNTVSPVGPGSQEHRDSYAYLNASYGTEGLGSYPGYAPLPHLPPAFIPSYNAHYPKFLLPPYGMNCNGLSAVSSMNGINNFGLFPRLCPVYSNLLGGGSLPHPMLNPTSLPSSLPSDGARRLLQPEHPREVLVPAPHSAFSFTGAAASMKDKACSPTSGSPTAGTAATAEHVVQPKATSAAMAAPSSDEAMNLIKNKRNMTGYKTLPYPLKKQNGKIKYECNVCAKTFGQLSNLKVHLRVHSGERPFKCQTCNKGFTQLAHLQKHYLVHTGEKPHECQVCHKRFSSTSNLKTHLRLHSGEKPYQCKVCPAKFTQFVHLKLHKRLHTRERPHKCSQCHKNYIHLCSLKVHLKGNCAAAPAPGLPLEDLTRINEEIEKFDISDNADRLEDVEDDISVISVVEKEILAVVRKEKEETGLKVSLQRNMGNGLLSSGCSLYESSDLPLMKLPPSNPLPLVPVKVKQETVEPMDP

“PR domain zinc finger protein 1 (Homo sapiens), O75626-2 K778R”: the “effect of a mutation on the interaction” value is recorded as “decreasing interaction”.

For the origin of these results see IntAct's records for PubMed 22555612.
